± gives the standard deviation.
Assay: protein stability index of a GFP-peptide fusion (GPS, HEK-293T) (PSI 1-6); higher = more stable
Details: c terminus: a fixed tail appended
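Note: 24-mer peptide tiles fused after GFP, lentivirally expressed, FACS-sorted into six equal bins by GFP/DsRed ratio, decoded by Illumina sequencing, PSI is the read-weighted mean bin number.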

## TLPPASRFIIIFEQIRFVMKAHSF [SOAT1]
treatment: DMSO
  protein stability index: 2.31 ± 0.48
treatment: MLN4924 1 uM, 8 h
  protein stability index: 2.57 ± 0.74

## DAHLVLDGEEIPVQKNILAAASPY [GAN]
treatment: DMSO
  protein stability index: 4.18 ± 0.12
treatment: MLN4924 1 uM, 8 h
  protein stability index: 4.16 ± 0.3

## MNLDIVDLLKKAKFHHSDCLSTWL [RHOBTB3]
treatment: DMSO
  protein stability index: 2.53 ± 0.4
treatment: MLN4924 1 uM, 8 h
  protein stability index: 2.44 ± 0.63

## PRVLTLSERPLDFLDLERPPTTPQ [MFF]
treatment: DMSO
  protein stability index: 4.26 ± 0.19
treatment: MLN4924 1 uM, 8 h
  protein stability index: 4.53 ± 0.41

## MYQELMEMCHKPDVELLQDLGDIV [TRIM43]
treatment: DMSO
  protein stability index: 2.57 ± 0.28
treatment: MLN4924 1 uM, 8 h
  protein stability index: 2.71 ± 0.45

## LGHREPSAHPVEVFSFDLHEPLSK [TMEM175]
treatment: DMSO
  protein stability index: 3.92 ± 0.16
treatment: MLN4924 1 uM, 8 h
  protein stability index: 4.17 ± 0.28

## DFSMAEALNQEFLATRSNEKQELQ [PRPH]
treatment: DMSO
  protein stability index: 5.05 ± 0.19
treatment: MLN4924 1 uM, 8 h
  protein stability index: 4.95 ± 0.27

## CLSRHSINPYSNRESRILFSTWNL [DFFB]
treatment: DMSO
  protein stability index: 2.28 ± 0.27
treatment: MLN4924 1 uM, 8 h
  protein stability index: 2.15 ± 0.3

## DIDGDVLVFLELAQFHCAYQLADW [RHOBTB2]
treatment: DMSO
  protein stability index: 2.76 ± 0.47
treatment: MLN4924 1 uM, 8 h
  protein stability index: 3.23 ± 0.62

## QPVMQSDRTAIRSDTTHLVTLGGV [KLHL13]
treatment: DMSO
  protein stability index: 3.88 ± 0.28
treatment: MLN4924 1 uM, 8 h
  protein stability index: 3.83 ± 0.35

## DIGKGAFSVVRRCVKLCTGHEYAA [CAMK2B]
treatment: DMSO
  protein stability index: 1.93 ± 0.2
treatment: MLN4924 1 uM, 8 h
  protein stability index: 2.06 ± 0.37

## ERFSSAPCLLGSRVFSQGSHAWEV [TRIM35]
treatment: DMSO
  protein stability index: 2.51 ± 0.36
treatment: MLN4924 1 uM, 8 h
  protein stability index: 2.46 ± 0.2

## VNQDILENKESWDKILALVPETIH [PRIM1]
treatment: DMSO
  protein stability index: 3.16 ± 0.19
treatment: MLN4924 1 uM, 8 h
  protein stability index: 2.85 ± 0.32

## SAKTRQRVEDAFYTLVREIRQYRL [KRAS]
treatment: MLN4924 1 uM, 8 h
  protein stability index: 2.31 ± 0.4

## GYRTSAVASGLQFDVETRHVFIGD [WDFY2]
treatment: DMSO
  protein stability index: 2.86 ± 0.31
treatment: MLN4924 1 uM, 8 h
  protein stability index: 3.15 ± 0.36

## SLRLWDTFGDHHKDRRFAYGRSDV [RHOBTB1]
treatment: DMSO
  protein stability index: 2.87 ± 0.38
treatment: MLN4924 1 uM, 8 h
  protein stability index: 2.92 ± 0.24

## GEEALSLQALDPQQCVDKESSLGS [SLC22A15]
treatment: DMSO
  protein stability index: 5.36 ± 0.33
treatment: MLN4924 1 uM, 8 h
  protein stability index: 5.36 ± 0.32

## HSTSLKVPLARSLQISEELLSRNQ [LCOR]
treatment: DMSO
  protein stability index: 4 ± 0.24
treatment: MLN4924 1 uM, 8 h
  protein stability index: 3.97 ± 0.099

## RSYIKLFQAPCQRCGKFLQDGLPP [MED27]
treatment: DMSO
  protein stability index: 2.19 ± 0.17
treatment: MLN4924 1 uM, 8 h
  protein stability index: 2 ± 0.1

## SQPPKKKPKTTNIELQGVPNDEVH [RBBP5]
treatment: DMSO
  protein stability index: 5.32 ± 0.2
treatment: MLN4924 1 uM, 8 h
  protein stability index: 5.28 ± 0.14

## VLVNVLQAIYVIDFFWNETWYLKT [DHCR7]
treatment: DMSO
  protein stability index: 3.09 ± 0.25
treatment: MLN4924 1 uM, 8 h
  protein stability index: 3.22 ± 0.27

## FYFKLTDLYKKVKKNSSPPLSLYG [CRY1]
treatment: DMSO
  protein stability index: 2.7 ± 0.51
treatment: MLN4924 1 uM, 8 h
  protein stability index: 2.69 ± 0.49

## SLQSTGKCLLYCNGVLEPLYLCPN [SLC25A39]
treatment: DMSO
  protein stability index: 2.03 ± 0.34
treatment: MLN4924 1 uM, 8 h
  protein stability index: 2.21 ± 0.5

## GAIAQSSIYPMEVLKTRMALRKTG [SLC25A25]
treatment: DMSO
  protein stability index: 3.54 ± 0.11
treatment: MLN4924 1 uM, 8 h
  protein stability index: 3.74 ± 0.28

## QEKLQVLMAEGLLPAVKVFLDWLR [SMG5]
treatment: DMSO
  protein stability index: 2.5 ± 0.7
treatment: MLN4924 1 uM, 8 h
  protein stability index: 2.57 ± 0.54

## NDLQDLREQILRVKDTDDVPMILV [RAP1B]
treatment: DMSO
  protein stability index: 2.82 ± 0.3
treatment: MLN4924 1 uM, 8 h
  protein stability index: 3.06 ± 0.21

## ELIKWRAAIVVNGHGMTPLKVAAE [FEM1B]
treatment: DMSO
  protein stability index: 2.64 ± 0.55
treatment: MLN4924 1 uM, 8 h
  protein stability index: 2.15 ± 0.33

## LIVTSLLLLPGLNQHGIILKYIGM [ARL6IP1]
treatment: MLN4924 1 uM, 8 h
  protein stability index: 3.15 ± 0.81

## QLVSFQKLKLTNNHLDPFGHIILN [TBX5]
treatment: DMSO
  protein stability index: 2.33 ± 0.39
treatment: MLN4924 1 uM, 8 h
  protein stability index: 2.23 ± 0.33

## KLSGFMSKLVPAIQNAHKNSTGSG [TPRG1]
treatment: DMSO
  protein stability index: 2.72 ± 0.2
treatment: MLN4924 1 uM, 8 h
  protein stability index: 3.03 ± 0.23

## HTFAGDDCQAGLNFADEDEAQAFR [WAS]
treatment: DMSO
  protein stability index: 5.26 ± 0.18
treatment: MLN4924 1 uM, 8 h
  protein stability index: 4.92 ± 0.38

## LPPPSALKKGSKEKQADFLDKQMS [NFE2L1]
treatment: DMSO
  protein stability index: 4.89 ± 0.24
treatment: MLN4924 1 uM, 8 h
  protein stability index: 4.91 ± 0.29

## NDFVQVDPGQVGLINSNVSMVDLT [FAN1]
treatment: DMSO
  protein stability index: 3.9 ± 0.39
treatment: MLN4924 1 uM, 8 h
  protein stability index: 4.24 ± 0.15

## MVSSVLCRCVASPPPDAAATAASS [SLC25A25]
treatment: DMSO
  protein stability index: 2.94 ± 0.24
treatment: MLN4924 1 uM, 8 h
  protein stability index: 2.92 ± 0.22

## ALEALEPFWEVLVRSTETVERDNM [HDAC6]
treatment: DMSO
  protein stability index: 2.95 ± 0.23
treatment: MLN4924 1 uM, 8 h
  protein stability index: 3.12 ± 0.45

## FHYIIEQGVCYLVLCEAAFPKKLA [SEC22B]
treatment: DMSO
  protein stability index: 3.01 ± 0.71
treatment: MLN4924 1 uM, 8 h
  protein stability index: 2.68 ± 0.63

## NYCSAYESFYESTSPECASPQFEG [NEUROD6]
treatment: DMSO
  protein stability index: 3.54 ± 0.22
treatment: MLN4924 1 uM, 8 h
  protein stability index: 3.67 ± 0.16

## PMTPEDPSFWDCFCFTEEIPIRNG [AASDHPPT]
treatment: DMSO
  protein stability index: 3.56 ± 0.093
treatment: MLN4924 1 uM, 8 h
  protein stability index: 3.67 ± 0.2

## EEDNDDAKILPSPVQGSSEDNLSL [DRICH1]
treatment: DMSO
  protein stability index: 5.57 ± 0.25
treatment: MLN4924 1 uM, 8 h
  protein stability index: 5.55 ± 0.17

## CRRSVRLALGRERLGEIHTLPLPA [SPSB1]
treatment: DMSO
  protein stability index: 3 ± 0.17
treatment: MLN4924 1 uM, 8 h
  protein stability index: 2.98 ± 0.11

## RKKSGDLKKAKVQVERMREVNSRC [FBXO34]
treatment: DMSO
  protein stability index: 4.15 ± 0.17
treatment: MLN4924 1 uM, 8 h
  protein stability index: 4.38 ± 0.42

## YFTNRKVNSVCWASLNHLDSHILL [DCAF4]
treatment: DMSO
  protein stability index: 2.82 ± 0.56
treatment: MLN4924 1 uM, 8 h
  protein stability index: 2.42 ± 0.21

## LDASGEKMNGSHRDQGSSALSGVG [IKZF1]
treatment: DMSO
  protein stability index: 4.97 ± 0.51
treatment: MLN4924 1 uM, 8 h
  protein stability index: 5.05 ± 0.3

## GLAFFTFPNIASATKFKQLYRSRM [HMOX1]
treatment: DMSO
  protein stability index: 2.39 ± 0.78
treatment: MLN4924 1 uM, 8 h
  protein stability index: 1.98 ± 0.34

## SWAKSIPGFSSLSLSDQMSVLQSV [ESRRA]
treatment: DMSO
  protein stability index: 2.5 ± 0.32
treatment: MLN4924 1 uM, 8 h
  protein stability index: 2.66 ± 0.17

## PSNTGSRTTSVRCRGIPRGPVRPA [NEK8]
treatment: DMSO
  protein stability index: 3.89 ± 0.089
treatment: MLN4924 1 uM, 8 h
  protein stability index: 4 ± 0.17
